From US20170232104A1

Tests used:
[1] = target: 28mer peptide of the CXCR5 antigen; assay: antigen ELISA; 100 mg/mL formulation, +5C, 18 months
[2] = target: 28mer peptide of the CXCR5 antigen; assay: antigen ELISA; 100 mg/mL formulation, +25C, 1 month
[3] = target: 28mer peptide of the CXCR5 antigen; assay: antigen ELISA; 100 mg/mL formulation, +5C, initial
[4] = target: 28mer peptide of the CXCR5 antigen; assay: antigen ELISA; 100 mg/mL formulation, +25C, 6 months
[5] = target: 28mer peptide of the CXCR5 antigen; assay: antigen ELISA; 100 mg/mL formulation, -20C, 3 months
[6] = target: 28mer peptide of the CXCR5 antigen; assay: antigen ELISA; 100 mg/mL formulation, +5C, 9 months
[7] = target: 28mer peptide of the CXCR5 antigen; assay: antigen ELISA; PBS 155 mM, polypropylene, 24 h +40C
[8] = target: 28mer peptide of the CXCR5 antigen; assay: antigen ELISA; 100 mg/mL formulation, -20C, 12 months
[9] = target: 28mer peptide of the CXCR5 antigen; assay: antigen ELISA; 100 mg/mL formulation, +5C, 6 months
[10] = target: 28mer peptide of the CXCR5 antigen; assay: antigen ELISA; 100 mg/mL formulation, +5C, 15 months
[11] = target: 28mer peptide of the CXCR5 antigen; assay: antigen ELISA; PBS 155 mM, clear glass type I as T0, 24 h +40C
[12] = target: 28mer peptide of the CXCR5 antigen; assay: antigen ELISA; PBS 155 mM, light stress, 24 h +40C
[13] = target: 28mer peptide of the CXCR5 antigen; assay: antigen ELISA; PBS 155 mM, clear glass type I, 24 h +40C
[14] = target: 28mer peptide of the CXCR5 antigen; assay: antigen ELISA; 100 mg/mL formulation, -20C, 9 months
[15] = target: 28mer peptide of the CXCR5 antigen; assay: antigen ELISA; 100 mg/mL formulation, +5C, 12 months
[16] = target: 28mer peptide of the CXCR5 antigen; assay: antigen ELISA; 100 mg/mL formulation, +25C, 3 months
[17] = target: 28mer peptide of the CXCR5 antigen; assay: antigen ELISA; citrate pH 6.0 prototype B, 20 mg/mL, T0
[18] = target: 28mer peptide of the CXCR5 antigen; assay: antigen ELISA; citrate pH 6.0 prototype C, 20 mg/mL, T0
[19] = target: 28mer peptide of the CXCR5 antigen; assay: antigen ELISA; 100 mg/mL formulation, +25C, initial
[20] = target: 28mer peptide of the CXCR5 antigen; assay: antigen ELISA; histidine pH 5.0 prototype B (table title LA_09_029B), 20 mg/mL, T0
[21] = target: 28mer peptide of the CXCR5 antigen; assay: antigen ELISA; 100 mg/mL formulation, -20C, 18 months
[22] = target: 28mer peptide of the CXCR5 antigen; assay: antigen ELISA; 100 mg/mL formulation, -20C, 1 month
[23] = target: 28mer peptide of the CXCR5 antigen; assay: antigen ELISA; 100 mg/mL formulation, -20C, 6 months
[24] = target: 28mer peptide of the CXCR5 antigen; assay: antigen ELISA; histidine pH 5.0 prototype A, 20 mg/mL, T0
[25] = target: 28mer peptide of the CXCR5 antigen; assay: antigen ELISA; histidine pH 5.0 prototype D, 20 mg/mL, T0
[26] = target: 28mer peptide of the CXCR5 antigen; assay: antigen ELISA; 100 mg/mL formulation, +5C, 3 months
[27] = target: 28mer peptide of the CXCR5 antigen; assay: antigen ELISA; acetate pH 5.5 prototype D, 20 mg/mL, T0
[28] = target: 28mer peptide of the CXCR5 antigen; assay: antigen ELISA; PBS 155 mM, 1 h purged with air, 24 h +40C
[29] = target: 28mer peptide of the CXCR5 antigen; assay: antigen ELISA; 100 mg/mL formulation, -20C, initial
[30] = target: 28mer peptide of the CXCR5 antigen; assay: antigen ELISA; 100 mg/mL formulation, +5C, 1 month
[31] = target: 28mer peptide of the CXCR5 antigen; assay: antigen ELISA; acetate pH 5.5 prototype C, 20 mg/mL, T0

Potency (Antigen ELISA) EC50 value (in comparison to reference) [1]: 119%
Potency (Antigen ELISA) EC50 value (in comparison to reference) [2]: 121%
Potency (Antigen ELISA) EC50 value (in comparison to reference) [3]: 75%
Potency (Antigen ELISA) EC50 value (in comparison to reference) [4]: 104%
Potency (Antigen ELISA) EC50 value (in comparison to reference) [5]: 84%
Potency (Antigen ELISA) EC50 value (in comparison to reference) [6]: 92%
EC50% [7]: 107%
Potency (Antigen ELISA) EC50 value (in comparison to reference) [8]: 96%
Potency (Antigen ELISA) EC50 value (in comparison to reference) [9]: 97%
Potency (Antigen ELISA) EC50 value (in comparison to reference) [10]: 114%
EC50% [11]: 62.3%
EC50% [12]: 72.3%
EC50% [13]: 131%
Potency (Antigen ELISA) EC50 value (in comparison to reference) [14]: 101%
Potency (Antigen ELISA) EC50 value (in comparison to reference) [15]: 93%
Potency (Antigen ELISA) EC50 value (in comparison to reference) [16]: 96%
EC50% [17]: 104%
EC50% [18]: 104%
Potency (Antigen ELISA) EC50 value (in comparison to reference) [19]: 75%
EC50% [20]: 118%
Potency (Antigen ELISA) EC50 value (in comparison to reference) [21]: 127%
Potency (Antigen ELISA) EC50 value (in comparison to reference) [22]: 107%
Potency (Antigen ELISA) EC50 value (in comparison to reference) [23]: 96%
EC50% [24]: 174%
EC50% [25]: 169%
Potency (Antigen ELISA) EC50 value (in comparison to reference) [26]: 95%
EC50% [27]: 91%
EC50% [28]: 84.3%
Potency (Antigen ELISA) EC50 value (in comparison to reference) [29]: 75%
Potency (Antigen ELISA) EC50 value (in comparison to reference) [30]: 105%
EC50% [31]: 142%
B1: Lead CXCR5 Antibody (humanized IgG4 anti-CXCR5 antibody) (antibody, V domains shown)
VH: QVQLKESGPGLVAPSESLSITCTVSGFSLIDYGVNWIRQPPGKGLEWLGVIWGDGTTYYNPSLKSRLSISKDNSKSQVFLKVTSLTTDDTAMYYCARIVYWGQGTLVTVSA
VL: DIVMTQAAPSVAVTPGASVSISCRSSKSLLHSSGKTYLYWFLQRPGQSPQLLIYRLSSLASGVPDRFSGSGSGTAFTLRISRVEAEDVGVYYCMQHLEYPYTFGGGTKLEIKR
